Measurements taken from the supplement of paper PMC10724198.
± gives the standard deviation of the averaged measurements.

Key:
Saccharomyces cerevisiae [1] = experiment: protein stability index of tFT-peptide fusion (C-terminal peptide) (PSI (0-1 scale)); higher = more stable (slower turnover); settings: genetic background: wild type; temperature: 30 C
Saccharomyces cerevisiae [2] = experiment: as above
Method: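 MPS profiling in S. cerevisiae of the tFT-X12 degron library: putative degron peptides plus stable controls, 12 aa, fused to the C-terminus of a sfGFP-mCherry timer. Cells are FACS-sorted into 8 mCherry/sfGFP bins and deep-sequenced. PSI runs from 0 (unstable) to 1 (stable). Backgrounds are wild type, das1Δ and doa10Δ at 30 °C, and wild type, das1Δ, cdc34-1 and cdc53-1 at 37 °C; 2-3 technical replicates each.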

[3] = genetic background: cdc34-1, temperature: 37 C
[4] = genetic background: cdc53-1, temperature: 37 C
[5] = genetic background: das1 deletion, temperature: 30 C
[6] = genetic background: das1 deletion, temperature: 37 C
[7] = genetic background: doa10 deletion, temperature: 30 C
[8] = genetic background: wild type, temperature: 30 C
[9] = genetic background: wild type, temperature: 37 C
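Further: PSI is a weighted mean of sequencing reads over stability bins, variants kept only with over 10 reads, mCherry proximal and sfGFP distal, peptide attached via GGGS linker.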

| Sequence | protein stability index (Saccharomyces cerevisiae [1]) | protein stability index (Saccharomyces cerevisiae [2]; [3]) | protein stability index (Saccharomyces cerevisiae [2]; [4]) | protein stability index (Saccharomyces cerevisiae [2]; [5]) | protein stability index (Saccharomyces cerevisiae [2]; [6]) | protein stability index (Saccharomyces cerevisiae [2]; [7]) | protein stability index (Saccharomyces cerevisiae [2]; [8]) | protein stability index (Saccharomyces cerevisiae [2]; [9]) |
| --- | --- | --- | --- | --- | --- | --- | --- | --- |
| VVVLFGRLVVIC | 0.431 ± 0.048 | 0.48 ± 0.01 | 0.611 ± 0.019 | 0.448 ± 0.033 | 0.598 ± 0.017 | 0.327 ± 0.0075 | 0.332 ± 0.029 | 0.5402 ± 0.003 |
| VVVYWGSLKRVC | 0.263 ± 0.041 | 0.5772 ± 0.0046 | 0.669 ± 0.012 | 0.584 ± 0.02 | 0.7 ± 0.0057 | 0.104 ± 0.0089 | 0.117 ± 0.027 | 0.289 ± 0.0064 |
| VWFCCLFFCFFV | 0.404 ± 0.028 | 0.432 ± 0.021 | 0.448 ± 0.0086 | 0.378 ± 0.028 | 0.47 ± 0.011 | 0.4276 ± 0.0036 | 0.367 ± 0.012 | 0.41 ± 0.012 |
| VWSWFVIYFFFC | 0.368 ± 0.0054 | 0.358 ± 0.025 | 0.388 ± 0.0079 | 0.335 ± 0.029 | 0.497 ± 0.013 | 0.366 ± 0.02 | 0.324 ± 0.014 | 0.444 ± 0.02 |
| VYCTFLFAYTLP | 0.483 ± 0.0062 | 0.556 ± 0.036 | 0.591 ± 0.032 | 0.443 ± 0.015 | 0.602 ± 0.0074 | 0.435 ± 0.0053 | 0.443 ± 0.015 | 0.59 ± 0.0096 |
| VYEVELSVRVTV | 0.522 ± 0.063 | 0.552 ± 0.03 | 0.56 ± 0.013 | 0.435 ± 0.026 | 0.548 ± 0.0089 | 0.404 ± 0.0053 | 0.447 ± 0.035 | 0.51 ± 0.0073 |
| VYVVLGTVYVTY | 0.273 ± 0.025 | 0.195 ± 0.014 | 0.325 ± 0.013 | 0.194 ± 0.025 | 0.381 ± 0.0087 | 0.166 ± 0.0049 | 0.187 ± 0.031 | 0.362 ± 0.021 |
| WDPKISVFVLID | 0.403 ± 0.0096 | 0.439 ± 0.056 | 0.53 ± 0.11 | 0.344 ± 0.024 | 0.55 ± 0.025 | 0.246 ± 0.013 | 0.291 ± 0.018 | 0.479 ± 0.0098 |
| WFAHGLRHFRIL | 0.375 ± 0.068 | 0.653 ± 0.081 | 0.76058 ± 0.00075 | 0.661 ± 0.0098 | 0.742 ± 0.027 | 0.273 ± 0.016 | 0.299 ± 0.012 | 0.532 ± 0.034 |
| WFFLFGFVFFFR | 0.411 ± 0.077 | 0.36 ± 0.059 | 0.4002 ± 0.0035 | 0.352 ± 0.044 | 0.475 ± 0.019 | 0.433 ± 0.018 | 0.351 ± 0.039 | 0.4444 ± 0.0032 |
| WFGCSTVWVRVQ | 0.147 ± 0.0067 | 0.286 ± 0.055 | 0.394 ± 0.0052 | 0.328 ± 0.037 | 0.502 ± 0.0075 | 0.0767 ± 0.0031 | 0.0787 ± 0.024 | 0.0591 ± 0.021 |
| WFIPRSVCRWLF | 0.135 ± 0.0067 | 0.515 ± 0.067 | 0.684 ± 0.028 | 0.611 ± 0.023 | 0.676 ± 0.033 | 0.0895 ± 0.017 | 0.0735 ± 0.026 | 0.116 ± 0.023 |
| WFSAGSCRWVLC | 0.24 ± 0.0076 | 0.58 ± 0.061 | 0.71 ± 0.023 | 0.543 ± 0.012 | 0.709 ± 0.013 | 0.126 ± 0.0071 | 0.1431 ± 0.00041 | 0.321 ± 0.027 |
| WGAHRVRVSRIL | 0.509 ± 0.016 | 0.686 ± 0.034 | 0.768 ± 0.021 | 0.656 ± 0.028 | 0.742 ± 0.0081 | 0.295 ± 0.003 | 0.326 ± 0.043 | 0.516 ± 0.0052 |
| WLCVFVFGIFFV | 0.204 ± 0.016 | 0.146 ± 0.016 | 0.162 ± 0.01 | 0.179 ± 0.026 | 0.2894 ± 0.0021 | 0.292 ± 0.0061 | 0.186 ± 0.016 | 0.266 ± 0.0091 |
| WLFRCFLFVVGG | 0.422 ± 0.0045 | 0.39 ± 0.025 | 0.441 ± 0.013 | 0.371 ± 0.025 | 0.46 ± 0.0069 | 0.413 ± 0.019 | 0.366 ± 0.016 | 0.4363 ± 0.0023 |
| WLLVVCRGLVFR | 0.319 ± 0.046 | 0.227 ± 0.0051 | 0.228 ± 0.024 | 0.25 ± 0.036 | 0.4124 ± 0.0027 | 0.329 ± 0.023 | 0.236 ± 0.022 | 0.405 ± 0.018 |
| WQGWFLSLCIWV | 0.348 ± 0.014 | 0.2872 ± 0.0019 | 0.341 ± 0.0047 | 0.3 ± 0.031 | 0.404 ± 0.0047 | 0.317 ± 0.0065 | 0.296 ± 0.024 | 0.392 ± 0.025 |
| WQVPYQRLAILF | 0.309 ± 0.017 | 0.603 ± 0.021 | 0.656 ± 0.017 | 0.555 ± 0.03 | 0.681 ± 0.016 | 0.215 ± 0.017 | 0.247 ± 0.02 | 0.346 ± 0.011 |

| Sequence | protein stability index (Saccharomyces cerevisiae [1]) | protein stability index (Saccharomyces cerevisiae [2]; [3]) | protein stability index (Saccharomyces cerevisiae [2]; [4]) | protein stability index (Saccharomyces cerevisiae [2]; [5]) | protein stability index (Saccharomyces cerevisiae [2]; [6]) | protein stability index (Saccharomyces cerevisiae [2]; [7]) | protein stability index (Saccharomyces cerevisiae [2]; [8]) | protein stability index (Saccharomyces cerevisiae [2]; [9]) |
| --- | --- | --- | --- | --- | --- | --- | --- | --- |
| WRCLHLVYLFFH | 0.286 ± 0.0091 | 0.395 ± 0.016 | 0.438 ± 0.036 | 0.365 ± 0.048 | 0.531 ± 0.047 | 0.192 ± 0.0042 | 0.173 ± 0.017 | 0.303 ± 0.013 |
| WRVRFRLLAGFC | 0.173 ± 0.018 | 0.347 ± 0.038 | 0.4126 ± 0.0035 | 0.296 ± 0.021 | 0.421 ± 0.0046 | 0.073 ± 0.016 | 0.107 ± 0.027 | 0.206 ± 0.016 |
| WSFPFFLLPFLF | 0.296 ± 0.034 | 0.393 ± 0.0059 | 0.352 ± 0.0092 | 0.44 ± 0.022 | 0.5103 ± 0.0048 | 0.25 ± 0.0094 | 0.211 ± 0.014 | 0.305 ± 0.021 |
| WSFYVVGRLLVN | 0.124 ± 0.0045 | 0.33 ± 0.031 | 0.383 ± 0.013 | 0.287 ± 0.024 | 0.45 ± 0.014 | 0.106 ± 0.0031 | 0.132 ± 0.0018 | 0.154 ± 0.015 |
| WSHVPLAPLSCF | 0.4567 ± 0.0039 | 0.43 ± 0.017 | 0.442 ± 0.0048 | 0.337 ± 0.023 | 0.477 ± 0.0073 | 0.287 ± 0.0032 | 0.315 ± 0.023 | 0.42596 ± 0.00033 |
| WSVCLLLLGRFC | 0.466 ± 0.018 | 0.523 ± 0.013 | 0.604 ± 0.011 | 0.455 ± 0.026 | 0.617 ± 0.026 | 0.347 ± 0.0005 | 0.381 ± 0.024 | 0.554 ± 0.026 |
| WTRAHWFFQFFV | 0.171 ± 0.0033 | 0.334 ± 0.061 | 0.677 ± 0.051 | 0.667 ± 0.018 | 0.739 ± 0.015 | 0.0772 ± 0.00094 | 0.0685 ± 0.0097 | 0.0858 ± 0.015 |
| WVVVLFAYRGLR | 0.458 ± 0.088 | 0.57 ± 0.026 | 0.519 ± 0.12 | 0.362 ± 0.031 | 0.57 ± 0.038 | 0.323 ± 0.02 | 0.379 ± 0.037 | 0.559 ± 0.041 |
| WYMYVRMASFLV | 0.375 ± 0.026 | 0.534 ± 0.058 | 0.634 ± 0.05 | 0.489 ± 0.026 | 0.603 ± 0.018 | 0.302 ± 0.0084 | 0.287 ± 0.027 | 0.44 ± 0.0072 |
| YCDPSLIWLYLM | 0.249 ± 0.02 | 0.57 ± 0.012 | 0.714 ± 0.018 | 0.61 ± 0.021 | 0.727 ± 0.0077 | 0.1768 ± 0.0011 | 0.18 ± 0.012 | 0.275 ± 0.031 |
| YFICLSLVLFSY | 0.303 ± 0.069 | 0.163 ± 0.058 | 0.274 ± 0.05 | 0.215 ± 0.024 | 0.351 ± 0.032 | 0.202 ± 0.02 | 0.179 ± 0.03 | 0.306 ± 0.021 |
| YIILLSRKCAFC | 0.503 ± 0.017 | 0.573 ± 0.017 | 0.65 ± 0.013 | 0.51 ± 0.018 | 0.645 ± 0.015 | 0.401 ± 0.011 | 0.396 ± 0.024 | 0.586 ± 0.029 |
| YKLRAVFVCSVT | 0.392 ± 0.037 | 0.575 ± 0.06 | 0.6329 ± 0.0043 | 0.507 ± 0.021 | 0.6427 ± 0.0023 | 0.311 ± 0.018 | 0.34 ± 0.025 | 0.445 ± 0.028 |
| YLYSSSPWILHG | 0.383 ± 0.045 | 0.673 ± 0.011 | 0.748 ± 0.035 | 0.664 ± 0.015 | 0.748 ± 0.033 | 0.274 ± 0.027 | 0.287 ± 0.044 | 0.52 ± 0.023 |
| YTVRRVWLVRSR | 0.423 ± 0.0074 | 0.445 ± 0.0056 | 0.521 ± 0.029 | 0.344 ± 0.032 | 0.5005 ± 0.0038 | 0.312 ± 0.012 | 0.325 ± 0.038 | 0.4934 ± 0.0033 |
| YVGILCTGILTV | 0.438 ± 0.0072 | 0.522 ± 0.024 | 0.54 ± 0.045 | 0.405 ± 0.026 | 0.564 ± 0.0085 | 0.38 ± 0.011 | 0.41 ± 0.017 | 0.549 ± 0.013 |
| YVSSCLLWLCFV | 0.376 ± 0.034 | 0.484 ± 0.043 | 0.551 ± 0.018 | 0.421 ± 0.023 | 0.5591 ± 0.0006 | 0.28 ± 0.0085 | 0.287 ± 0.023 | 0.457 ± 0.011 |
| YYVIFHLFSFLI | 0.392 ± 0.094 | 0.427 ± 0.025 | 0.478 ± 0.0057 | 0.383 ± 0.033 | 0.533 ± 0.048 | 0.288 ± 0.0055 | 0.293 ± 0.022 | 0.493 ± 0.026 |
